In this data set the target is T1, TCP4 DNA binding domain (Arabidopsis thaliana, UniProt Q8LPR5 45-103).
T1 sequence: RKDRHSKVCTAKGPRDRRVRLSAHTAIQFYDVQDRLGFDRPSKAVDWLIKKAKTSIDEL
Kind of data set: EMSA; EMSA: ~180 ng protein + ~200 ng dsDNA, 4 °C 20 min; DNA annealed in 25 mM Tris, 100 mM NaCl pH 8.0; 7% native PAGE in 0.5x TBE, ethidium bromide; binding buffer not stated. As to conditions: protein: recombinant; tags: C-terminal His (pET-21b); chain copies: 2; blunt.

B1: CRC promoter probe (dsDNA)
DNA 1: CAGGAAAGGACCATTCTTAA
DNA 2: TTAAGAATGGTCCTTTCCTG
For the molecule B1, the binding result is recorded as “binds”.
